# From patent US8900593B2 (Indiana University Research and Technology Corporation, priority 2007, dated 2014)
# Like-named read-outs stand apart in the source and are kept apart here. Bridges are numbered along the chain shown (N, C = ends). Where no end group is shown, it is not given here. [ ]: non-standard residue; d: D form. The star is where a group is joined. Isobutyryl(2-imidazol-4-yl) = CC(C)(C(=O)*)c1c[nH]cn1; PEG = not defined here; Aib = CC(C)(N)C(=O)O
# How the values were obtained:
# glucagon receptor = molecular target: T1, glucagon receptor (Homo sapiens, UniProt P47871); test: Functional assay-cAMP synthesis, luciferase reporter in HEK293 cells co-transfected with glucagon receptor; assay type: cell-based; conditions: for Glucagon Receptor Relative Potency (%): Table 11, relative to glucagon (SEQ ID NO: 1) = 100; for Parent w/PEG % Potency Relative to Native GR / Parent w/o PEG % Potency Relative to Native GR: Table 12; for Parent w/PEG % Potency Relative to Native GR: pegylated peptide; for Parent w/o PEG % Potency Relative to Native GR: peptide without PEG; for Percent Potency Relative to Native Ligand GRec: relative to native glucagon
# T1 construct: expressed in transfected cells; host or cells: HEK293
# GLP-1 receptor = molecular target: T2, GLP-1 receptor (Homo sapiens, UniProt P43220); test: Functional assay-cAMP synthesis, luciferase reporter in HEK293 cells co-transfected with GLP-1 receptor; assay type: cell-based; conditions: for GLP 1 Receptor Relative Potency (%): Table 11, relative to GLP-1-VKGG30 (SEQ ID NO: 527) = 100; for Percent Potency Relative to Native Ligand GLP-1Rec: relative to native GLP-1
# T2 construct: expressed in transfected cells; host or cells: HEK293
# T2 sequence (P43220 24-463, species assumed): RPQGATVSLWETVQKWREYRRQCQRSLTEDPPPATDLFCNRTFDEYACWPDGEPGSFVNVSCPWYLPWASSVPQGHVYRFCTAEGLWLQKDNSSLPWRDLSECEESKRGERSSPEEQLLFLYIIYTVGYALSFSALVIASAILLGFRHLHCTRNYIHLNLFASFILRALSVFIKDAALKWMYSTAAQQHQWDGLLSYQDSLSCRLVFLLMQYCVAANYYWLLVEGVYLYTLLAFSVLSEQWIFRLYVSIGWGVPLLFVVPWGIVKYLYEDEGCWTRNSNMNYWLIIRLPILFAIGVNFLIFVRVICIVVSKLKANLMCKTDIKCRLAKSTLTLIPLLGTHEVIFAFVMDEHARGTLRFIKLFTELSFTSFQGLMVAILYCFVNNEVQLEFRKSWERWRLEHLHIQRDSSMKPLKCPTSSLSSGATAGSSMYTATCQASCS
# T1 sequence (P47871 26-477): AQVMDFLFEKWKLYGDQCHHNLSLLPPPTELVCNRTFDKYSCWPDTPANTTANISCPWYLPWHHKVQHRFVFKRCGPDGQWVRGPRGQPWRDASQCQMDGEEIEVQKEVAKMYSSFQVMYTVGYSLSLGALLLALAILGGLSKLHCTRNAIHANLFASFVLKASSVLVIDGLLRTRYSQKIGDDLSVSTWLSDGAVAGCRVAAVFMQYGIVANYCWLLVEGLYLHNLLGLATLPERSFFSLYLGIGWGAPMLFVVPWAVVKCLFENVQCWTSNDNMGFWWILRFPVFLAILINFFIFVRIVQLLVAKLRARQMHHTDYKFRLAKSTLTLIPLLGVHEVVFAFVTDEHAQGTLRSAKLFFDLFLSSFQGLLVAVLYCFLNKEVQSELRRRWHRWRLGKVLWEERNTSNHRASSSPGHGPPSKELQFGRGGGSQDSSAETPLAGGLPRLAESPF
molecule,measurement,setting,value
HSQGTFTSDYSKYLDSRRAQDFVQWLVKGGPSSGAPPPS-NH2 [-VKGG^30 PSSGAPPPS (SEQ ID NO: 524)],EC50,glucagon receptor,1.16 nM
same,Glucagon Receptor Relative Potency (%),glucagon receptor,7%
same,EC50,GLP-1 receptor,0.21 nM
same,GLP 1 Receptor Relative Potency (%),GLP-1 receptor,12%
"HSQGT FTSDYSKYLD EQAAK EFIC*W LMNTa (HSQGTFTSDYSKYLDEQAAKEFIC(PEG)WLMNT-NH2; reading uncertain) [Chimera Cys24 (SEQ ID NO: 518), C* is Cys attached to PEG in the tested form]",Parent w/PEG % Potency Relative to Native GR,glucagon receptor,19.8%
same,Parent w/PEG % Potency Relative to Native GLP-1R,"GLP-1 receptor; Table 12, pegylated peptide",29.3%
HX2QGT FTSDY SKYLD ERAAK DFVC*W LMNGG PSSGA PPPSa (H[Aib]QGTFTSDYSKYLDERAAKDFVC(PEG)WLMNGGPSSGAPPPS-NH2; reading uncertain) [X2=AIB; C* is Cys attached to PEG in the tested form],Parent w/PEG % Potency Relative to Native GR,glucagon receptor,0.1%
same,Parent w/PEG % Potency Relative to Native GLP-1R,"GLP-1 receptor; Table 12, pegylated peptide",88.5%
HX2QGT FTSDYSKYLDEQAAKEFIAWLMNGGPSSGAPPPSC*a (H[Aib]QGTFTSDYSKYLDEQAAKEFIAWLMNGGPSSGAPPPSC-NH2; lactam (positions not given here); also: optional PEG on Cys40) [X2=AIB; C* is Cys or Cys attached to PEG],Parent w/PEG % Potency Relative to Native GR,glucagon receptor,3.2%
same,Parent w/o PEG % Potency Relative to Native GR,glucagon receptor,14.2%
same,Parent w/PEG % Potency Relative to Native GLP-1R,GLP-1 receptor,63.6%
same,Parent w/o PEG % Potency Relative to Native GLP-1R,GLP-1 receptor,169.6%
HSQGTFTSDYSKYLDERRAKDFVQW LMNTa [E16K20 Gluc-NH2 Lac] (HSQGTFTSDYSKYLDERRAKDFVQWLMNT-NH2; lactam 16-20; N-terminus assumed; SMILES CSCC[C@H](NC(=O)[C@H](CC(C)C)NC(=O)[C@H](Cc1c[nH]c2ccccc12)NC(=O)[C@H](CCC(N)=O)NC(=O)[C@@H](NC(=O)[C@H](Cc1ccccc1)NC(=O)[C@H](CC(=O)O)NC(=O)[C@@H]1CCCCNC(=O)CC[C@H](NC(=O)[C@H](CC(=O)O)NC(=O)[C@H](CC(C)C)NC(=O)[C@H](Cc2ccc(O)cc2)NC(=O)[C@H](CCCCN)NC(=O)[C@H](CO)NC(=O)[C@H](Cc2ccc(O)cc2)NC(=O)[C@H](CC(=O)O)NC(=O)[C@H](CO)NC(=O)[C@@H](NC(=O)[C@H](Cc2ccccc2)NC(=O)[C@@H](NC(=O)CNC(=O)[C@H](CCC(N)=O)NC(=O)[C@H](CO)NC(=O)[C@@H](N)Cc2c[nH]cn2)[C@@H](C)O)[C@@H](C)O)C(=O)N[C@@H](CCCNC(=N)N)C(=O)N[C@@H](CCCNC(=N)N)C(=O)N[C@@H](C)C(=O)N1)C(C)C)C(=O)N[C@@H](CC(N)=O)C(=O)N[C@H](C(N)=O)[C@@H](C)O),Percent Potency Relative to Native Ligand GRec,"glucagon receptor; Table 9, E16/lactam analogs",180.8%
same,Percent Potency Relative to Native Ligand GLP-1Rec,"GLP-1 receptor; Table 9, E16/lactam analogs",63.0%
"HSQGTFTSDYSKYLDEQAAKEFIAWLVKG-NH2 [E16 GLP(17-29)-NH2, HSQGTFTSDYSKYLDEQAAKEFIAW LVKGa]",EC50,"glucagon receptor; Glucagon Receptor EC50(nM), Table 10, GLP-1 17-26 glucagon analogs",0.46 nM
same,EC50,GLP-1 receptor,0.01 nM
HX2QGT FTSDY SKYLD ERRAK DFVC*W LMNTa (H[Aib]QGTFTSDYSKYLDERRAKDFVCWLMNT-NH2; lactam (positions not given here); also: optional PEG on Cys24) [X2=AIB; C* is Cys or Cys attached to PEG],Parent w/PEG % Potency Relative to Native GR,glucagon receptor,15.8%
same,Parent w/o PEG % Potency Relative to Native GR,glucagon receptor,108.3%
same,Parent w/PEG % Potency Relative to Native GLP-1R,GLP-1 receptor,31.0%
same,Parent w/o PEG % Potency Relative to Native GLP-1R,GLP-1 receptor,96.9%
HX2QGT FTSDYSKYLDEQAAKEFIAWLMNGGPSSGAPPPSC*a (H[Aib]QGTFTSDYSKYLDEQAAKEFIAWLMNGGPSSGAPPPSC-NH2; also: optional PEG on Cys40) [X2=AIB; C* is Cys or Cys attached to PEG],Parent w/PEG % Potency Relative to Native GR,glucagon receptor,0.3%
same,Parent w/o PEG % Potency Relative to Native GR,glucagon receptor,2.2%
same,Parent w/PEG % Potency Relative to Native GLP-1R,"GLP-1 receptor; Table 12, pegylated peptide",68.8%
same,Parent w/o PEG % Potency Relative to Native GLP-1R,"GLP-1 receptor; Table 12, peptide without PEG",359.1%
"HSEGTFTSDYSKYLDERRAQDFVQW LMNTa (HSEGTFTSDYSKYLDERRAQDFVQWLMNT-NH2) [E3, E16 Gluc-NH2]",Percent Potency Relative to Native Ligand GRec,glucagon receptor; Table 4,1.6%
same,Percent Potency Relative to Native Ligand GLP-1Rec,GLP-1 receptor; Table 4,28.8%
"X1SQGT FTSDYSKYLD EQAAK EFIC*W LMNTa [Chimera DMIA1, Cys24 (SEQ ID NO: 519)]",Parent w/PEG % Potency Relative to Native GR,glucagon receptor,6.9%
same,Parent w/o PEG % Potency Relative to Native GR,glucagon receptor,28.9%
same,Parent w/PEG % Potency Relative to Native GLP-1R,"GLP-1 receptor; Table 12, pegylated peptide",19.3%
same,Parent w/o PEG % Potency Relative to Native GLP-1R,"GLP-1 receptor; Table 12, peptide without PEG",64.5%
"X1SQGT FTSDYSKYLD EQAAK EFIAW LMNC*a ([Isobutyryl(2-imidazol-4-yl)]SQGTFTSDYSKYLDEQAAKEFIAWLMNC(PEG)-NH2; reading uncertain) [Chimera DMIA1, Cys29 (SEQ ID NO: 520), X1=DMIA; C* is Cys attached to PEG in the tested form]",Parent w/PEG % Potency Relative to Native GR,glucagon receptor,5.3%
same,Parent w/PEG % Potency Relative to Native GLP-1R,"GLP-1 receptor; Table 12, pegylated peptide",27.3%
CSCC[C@H](NC(=O)[C@H](CC(C)C)NC(=O)[C@H](Cc1c[nH]c2ccccc12)NC(=O)[C@H](CCC(N)=O)NC(=O)[C@@H](NC(=O)[C@H](Cc1ccccc1)NC(=O)[C@H](CC(=O)O)NC(=O)[C@H](CCC(N)=O)NC(=O)[C@H](C)NC(=O)[C@H](CCCNC(=N)N)NC(=O)[C@H](CCCNC(=N)N)NC(=O)[C@H](CO)NC(=O)[C@H](CC(=O)O)NC(=O)[C@H](CC(C)C)NC(=O)[C@H](Cc1ccc(O)cc1)NC(=O)[C@H](CCCCN)NC(=O)[C@H](CO)NC(=O)[C@H](Cc1ccc(O)cc1)NC(=O)[C@H](CC(=O)O)NC(=O)[C@H](CO)NC(=O)[C@@H](NC(=O)[C@H](Cc1ccccc1)NC(=O)[C@@H](NC(=O)CNC(=O)[C@H](CCC(N)=O)NC(=O)[C@H](CO)NC(=O)[C@@H](N)Cc1c[nH]cn1)[C@@H](C)O)[C@@H](C)O)C(C)C)C(=O)N[C@@H](CCCCN)C(=O)NCC(=O)NCC(=O)N1CCC[C@H]1C(=O)N[C@@H](CO)C(=O)N[C@@H](CO)C(=O)NCC(=O)N[C@@H](C)C(=O)N1CCC[C@H]1C(=O)N1CCC[C@H]1C(=O)N1CCC[C@H]1C(=O)N[C@@H](CO)C(N)=O [-MKGG^30 PSSGAPPPS (SEQ ID NO: 523)],EC50,glucagon receptor,0.61 nM
same,Glucagon Receptor Relative Potency (%),glucagon receptor,14%
same,EC50,GLP-1 receptor,0.8 nM
same,GLP 1 Receptor Relative Potency (%),GLP-1 receptor,3%
"HX2QGT FTSDY SKYLD ERAAK DFVC*W LMNTa (H[Aib]QGTFTSDYSKYLDERAAKDFVC(PEG)WLMNT-NH2; reading uncertain) [E16, K20AIB2, A18 Cys24 (SEQ ID NO: 492), X2=AIB; C* is Cys attached to PEG in the tested form]",Parent w/PEG % Potency Relative to Native GR,glucagon receptor,1.1%
same,Parent w/PEG % Potency Relative to Native GLP-1R,"GLP-1 receptor; Table 12, pegylated peptide",73.5%
